Assay results taken from patent publication US20100081612A1 (GENERAL HOSPITAL, published 2010).
Where no end group is shown, it is not given here. [ ]: non-standard residue; d: D form. Cha = N[C@@H](CC1CCCCC1)C(=O)O

T1: rat PTHR endogenously expressed in ROS 17/2.8 cells (rat, UniProt P25961 27-591)
T1 construct: whole, on cells; also called endogenous PTHR; PTHR in ROS 17/2.8 cells
T1 sequence (looked up): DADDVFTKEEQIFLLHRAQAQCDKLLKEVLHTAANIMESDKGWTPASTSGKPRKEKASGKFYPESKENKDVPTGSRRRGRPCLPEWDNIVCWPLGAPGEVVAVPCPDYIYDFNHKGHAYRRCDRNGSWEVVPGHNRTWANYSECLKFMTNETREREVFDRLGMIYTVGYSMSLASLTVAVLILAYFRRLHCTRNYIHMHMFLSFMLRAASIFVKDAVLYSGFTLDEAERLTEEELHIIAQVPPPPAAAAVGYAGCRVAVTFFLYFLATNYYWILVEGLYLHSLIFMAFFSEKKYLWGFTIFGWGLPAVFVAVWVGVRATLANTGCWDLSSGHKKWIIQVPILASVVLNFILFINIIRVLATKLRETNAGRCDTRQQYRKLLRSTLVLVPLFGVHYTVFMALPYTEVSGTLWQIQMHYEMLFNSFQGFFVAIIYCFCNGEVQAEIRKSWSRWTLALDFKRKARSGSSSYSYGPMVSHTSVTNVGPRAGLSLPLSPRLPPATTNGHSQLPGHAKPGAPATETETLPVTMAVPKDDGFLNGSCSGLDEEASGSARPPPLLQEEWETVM

T2: wild-type human PTHR (human, UniProt Q03431 27-593)
T2 construct: whole, on cells; also called PTHR-WT; intact PTHR
T2 sequence (looked up): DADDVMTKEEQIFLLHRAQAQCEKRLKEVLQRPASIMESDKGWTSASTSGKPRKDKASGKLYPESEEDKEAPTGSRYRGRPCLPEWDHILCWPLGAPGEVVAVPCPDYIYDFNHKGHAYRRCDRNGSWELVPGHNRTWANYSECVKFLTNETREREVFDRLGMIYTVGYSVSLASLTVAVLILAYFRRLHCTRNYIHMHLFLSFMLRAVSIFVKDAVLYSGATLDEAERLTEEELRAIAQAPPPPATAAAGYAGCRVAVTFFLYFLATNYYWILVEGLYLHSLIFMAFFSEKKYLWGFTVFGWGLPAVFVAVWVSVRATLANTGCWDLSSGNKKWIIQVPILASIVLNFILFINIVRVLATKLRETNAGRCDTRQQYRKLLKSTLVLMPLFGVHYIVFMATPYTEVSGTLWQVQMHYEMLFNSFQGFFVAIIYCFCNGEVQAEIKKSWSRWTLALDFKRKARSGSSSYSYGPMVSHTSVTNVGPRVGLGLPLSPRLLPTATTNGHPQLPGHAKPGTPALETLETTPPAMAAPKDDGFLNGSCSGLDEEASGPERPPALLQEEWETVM

B1: [Ala^1,Arg^19]hPTH(1-31)NH2 Arg^20→Glu (peptide)
peptide: AVSEIQLMHNLGKHLNSMREVEWLRKKLQDV-NH2
B2: [Ala^1,Arg^19]hPTH(1-31)NH2 Leu^24→Glu (peptide)
peptide: AVSEIQLMHNLGKHLNSMRRVEWERKKLQDV-NH2
B3: [Ala^1,Arg^19]hPTH(1-31)NH2 (peptide)
peptide: AVSEIQLMHNLGKHLNSMRRVEWLRKKLQDV-NH2
notes: also called [Ala^1,Arg^19]PTH(1-31)NH2; [Ala^1,Arg^19]PTH(1-31)
B4: [Ala^1,Arg^19]hPTH(1-31)NH2 Leu^28→Glu (peptide)
peptide: AVSEIQLMHNLGKHLNSMRRVEWLRKKEQDV-NH2
B5: [Ala^1,Arg^19]hPTH(1-31)NH2 Trp^23→Glu (peptide)
peptide: AVSEIQLMHNLGKHLNSMRRVEELRKKLQDV-NH2
B6: [Ala^1,Arg^19]hPTH(1-31)NH2 Arg^20→Cha (peptide)
peptide: AVSEIQLMHNLGKHLNSMR[Cha]VEWLRKKLQDV-NH2
modifications: N-terminus assumed
SMILES: CC[C@H](C)[C@H](NC(=O)[C@H](CCC(=O)O)NC(=O)[C@H](CO)NC(=O)[C@@H](NC(=O)[C@H](C)N)C(C)C)C(=O)N[C@@H](CCC(N)=O)C(=O)N[C@@H](CC(C)C)C(=O)N[C@@H](CCSC)C(=O)N[C@@H](Cc1c[nH]cn1)C(=O)N[C@@H](CC(N)=O)C(=O)N[C@@H](CC(C)C)C(=O)NCC(=O)N[C@@H](CCCCN)C(=O)N[C@@H](Cc1c[nH]cn1)C(=O)N[C@@H](CC(C)C)C(=O)N[C@@H](CC(N)=O)C(=O)N[C@@H](CO)C(=O)N[C@@H](CCSC)C(=O)N[C@@H](CCCNC(=N)N)C(=O)N[C@@H](CC1CCCCC1)C(=O)N[C@H](C(=O)N[C@@H](CCC(=O)O)C(=O)N[C@@H](Cc1c[nH]c2ccccc12)C(=O)N[C@@H](CC(C)C)C(=O)N[C@@H](CCCNC(=N)N)C(=O)N[C@@H](CCCCN)C(=O)N[C@@H](CCCCN)C(=O)N[C@@H](CC(C)C)C(=O)N[C@@H](CCC(N)=O)C(=O)N[C@@H](CC(=O)O)C(=O)N[C@H](C(N)=O)C(C)C)C(C)C
notes: also called Cha^20 analog
B7: [Ala^1,Arg^19]hPTH(1-31)NH2 Trp^23→Cha (peptide)
peptide: AVSEIQLMHNLGKHLNSMRRVE[Cha]LRKKLQDV-NH2
modifications: N-terminus assumed
SMILES: CC[C@H](C)[C@H](NC(=O)[C@H](CCC(=O)O)NC(=O)[C@H](CO)NC(=O)[C@@H](NC(=O)[C@H](C)N)C(C)C)C(=O)N[C@@H](CCC(N)=O)C(=O)N[C@@H](CC(C)C)C(=O)N[C@@H](CCSC)C(=O)N[C@@H](Cc1c[nH]cn1)C(=O)N[C@@H](CC(N)=O)C(=O)N[C@@H](CC(C)C)C(=O)NCC(=O)N[C@@H](CCCCN)C(=O)N[C@@H](Cc1c[nH]cn1)C(=O)N[C@@H](CC(C)C)C(=O)N[C@@H](CC(N)=O)C(=O)N[C@@H](CO)C(=O)N[C@@H](CCSC)C(=O)N[C@@H](CCCNC(=N)N)C(=O)N[C@@H](CCCNC(=N)N)C(=O)N[C@H](C(=O)N[C@@H](CCC(=O)O)C(=O)N[C@@H](CC1CCCCC1)C(=O)N[C@@H](CC(C)C)C(=O)N[C@@H](CCCNC(=N)N)C(=O)N[C@@H](CCCCN)C(=O)N[C@@H](CCCCN)C(=O)N[C@@H](CC(C)C)C(=O)N[C@@H](CCC(N)=O)C(=O)N[C@@H](CC(=O)O)C(=O)N[C@H](C(N)=O)C(C)C)C(C)C
B8: [Ala^1,Arg^19]hPTH(1-31)NH2 Leu^24→Cha (peptide)
peptide: AVSEIQLMHNLGKHLNSMRRVEW[Cha]RKKLQDV-NH2
modifications: N-terminus assumed
SMILES: CC[C@H](C)[C@H](NC(=O)[C@H](CCC(=O)O)NC(=O)[C@H](CO)NC(=O)[C@@H](NC(=O)[C@H](C)N)C(C)C)C(=O)N[C@@H](CCC(N)=O)C(=O)N[C@@H](CC(C)C)C(=O)N[C@@H](CCSC)C(=O)N[C@@H](Cc1c[nH]cn1)C(=O)N[C@@H](CC(N)=O)C(=O)N[C@@H](CC(C)C)C(=O)NCC(=O)N[C@@H](CCCCN)C(=O)N[C@@H](Cc1c[nH]cn1)C(=O)N[C@@H](CC(C)C)C(=O)N[C@@H](CC(N)=O)C(=O)N[C@@H](CO)C(=O)N[C@@H](CCSC)C(=O)N[C@@H](CCCNC(=N)N)C(=O)N[C@@H](CCCNC(=N)N)C(=O)N[C@H](C(=O)N[C@@H](CCC(=O)O)C(=O)N[C@@H](Cc1c[nH]c2ccccc12)C(=O)N[C@@H](CC1CCCCC1)C(=O)N[C@@H](CCCNC(=N)N)C(=O)N[C@@H](CCCCN)C(=O)N[C@@H](CCCCN)C(=O)N[C@@H](CC(C)C)C(=O)N[C@@H](CCC(N)=O)C(=O)N[C@@H](CC(=O)O)C(=O)N[C@H](C(N)=O)C(C)C)C(C)C

These binders were tested against PTHR-delNt (human) (UniProt Q03431) (assay: competition binding, COS-7 membranes, 125I-[Aib1,3,M]PTH(1-15) tracer).

Binder	IC50	fold reduction in binding affinity vs [Ala^1,Arg^19]PTH(1-31)NH2	fold change in binding affinity vs [Ala^1,Arg^19]PTH(1-31)NH2
B1	776 nM	< 3 fold	
B2	1040 nM	< 3 fold	
B3	397 nM		
B4	974 nM	< 3 fold	
B5	434 nM	< 3 fold	
B6	632 nM		< 3 fold
B7	867 nM		< 3 fold
B8	283 nM		< 3 fold

What follows are binders tested against T1, rat PTHR endogenously expressed in ROS … (assay: competition binding, ROS 17/2.8 cells, 125I-PTH(1-34) tracer).
Experimental: Receptor binding—Binding to the wild-type human PTHR in intact HKRK-B7 cells and ROS 17/2.8 cells was assessed using ¹²⁵I-PTH(1-34) as a tracer radioligand, as described (Shimizu, M., (2001) Endocrinology 142:3068-3074). In brief, the cells in 24-well plates (about 500,000 cells per well) were incubated in binding buffer containing radioligand (about 100,000 cpm per well) with or without unlabeled peptide ligand (3×10⁻⁹ to 1×10⁻⁵ M) for four hours at 15° C. The binding mixture was then removed by aspiration, the cells were rinsed three times with binding buffer, lysed in 1 M NaOH, and the entire lysate was counted for gamma-irradiation in a gamma counter. Binding to PTHR-delNt in COS-7 cell membranes was assessed in 96-well, vacuum filtration plates (Multiscreen-Durapore HV, […], Millipore Corp., Millford, Mass.) using ¹²⁵I-[Aib^{1,3},M]PTH(1-15)NH₂ as a tracer radioligand, as described (Dean, T., (2006) Mol Endocrinol 20:931-942). In brief, cell membranes (20 μg/well) were incubated in membrane binding buffer containing radioligand (30,000 cpm/well) with or without unlabeled peptide ligand (3×10⁻⁹ to 1×10⁻⁵ M) for 90 minutes at 21° C. The plates were then subject to rapid vacuum filtration, the filters were washed once with buffer, detached from the plate and counted for gamma-irradiation in a gamma counter. Non-specific binding was defined as the binding observed in the presence of 1×10⁻⁶ M PTH(1-31)NH₂ for HKRK-B7 and ROS 17/2.8 cells, and 1×10⁻⁶ M [Aib^{1,3},M]PTH(1-15)NH₂ for PTHR-delNt. Specifically bound radioactivity was calculated as a percentage of the radioactivity specifically bound in the absence of competing ligand.
Effects on cAMP and IP signaling—Selected analogs of [Ala¹,Arg¹⁹]hPTH(1-31)NH₂ with substitutions that markedly impaired binding to HKRK-B7 cells were assessed for their capacity to bind to the PTHR in ROS 17/2.8 cells and to stimulate cAMP-signaling responses in these cells. These bone-derived cells endogenously express the rat PTHR at a more physiological level than is found in HKRK-B7 cells (approximately 80,000 PTHRs per cell vs. 950,000 PTHRs per cell) and, have generally been found (data not shown) to yield closer correlations between PTH analog binding affinity and cAMP-signaling potency than do HKRK-B7 cells, presumably due to their lower PTHR expression level.

Binder	IC50
B1	5800 nM
B2	29000 nM
B3	1.6 nM
B4	3100 nM
B5	220 nM
B6	290 nM
B7	19 nM
B8	7.3 nM

Each binder was assayed against T2, wild-type human PTHR (assay: competition binding, HKRK-B7 cells, 125I-PTH(1-34) tracer).
Summary of the method: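 Intact HKRK-B7 cells stably expressing hPTHR incubated 4 h at 15° C with ¹²⁵I-PTH(1-34) tracer and unlabeled peptide (3×10⁻⁹ to 1×10⁻⁵ M). Nonspecific binding defined with 1×10⁻⁶ M PTH(1-31)NH₂. Bound activity counted after lysis and expressed as % specific binding without competitor; values in nM, mean ± s.e.m.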

Binder	IC50
B1	> 10000 nM
B2	> 10000 nM
B3	38 nM
B4	10400 nM
B5	6040 nM
B6	4740 nM
B7	546 nM
B8	436 nM

Target: T2, wild-type human PTHR
Assay: as above
Remark: another data set of the same source

Binder	fold reduction in binding affinity vs [Ala^1,Arg^19]PTH(1-31)NH2	fold reduction in binding vs [Ala^1,Arg^19]PTH(1-31)NH2
B1	≥ 150 fold	
B2	≥ 150 fold	
B6	120 fold	
B7	14 fold	~12 fold
B8	11 fold	~12 fold

The binders below were run against T1, rat PTHR endogenously expressed in ROS … (assay: cell-based or functional assay).

Binder	cAMP EC50, ROS 17/2.8 cells
B1	59 nM
B2	250 nM
B3	0.78 nM
B4	11 nM
B5	4 nM
B6	7.5 nM
B7	0.82 nM
B8	0.83 nM
